# According to FireProtDB (doi:10.1110/ps.8.8.1623):
# Several values for one entry are separate records, joined by “and”; a condition that tells them apart may be missing. Equal values may be shown once.
# B1: Tryptophan synthase alpha chain wild type, P0A877 (protein)
# chain: MERYESLFAQLKERKEGAFVPFVTLGDPGIEQSLKIIDTLIEAGADALELGIPFSDPLADGPTIQNATLRAFAAGVTPAQCFEMLALIRQKHPTIPIGLLMYANLVFNKGIDEFYAQCEKVGVDSVLVADVPVEESAPFRQAALRHNVAPIFICPPNADDDLLRQIASYGRGYTYLLSRAGVTGAENRAALPLNHLVAKLKEYNAAPPLQGFGISAPDQVKAAIDAGAAGAISGSAIVKIIEQHINEPEKMLAALKVFVQPMKAATRS
# Conditions: Escherichia coli (strain K12), pH 7.8, 25 °C, Urea, Potassium phosphate 100 mM, transition: 3, whole UniProt chain shown
protein,measurement,setting,value
B1,unfolding free energy,CD,6.6 kcal/mol and 4.6 kcal/mol and 4.4 kcal/mol
same,denaturant m value,Fluorescence,2.2 kcal/mol/M and 1.1 kcal/mol/M and 0.83 kcal/mol/M
same,unfolding free energy,Fluorescence,6 kcal/mol and 4.5 kcal/mol and 4.9 kcal/mol
